Test in all cases: EMSA
One data set addresses T1, MotA K59E (bacteriophage T4, UniProt P22915 1-211, K59E).
T1 sequence: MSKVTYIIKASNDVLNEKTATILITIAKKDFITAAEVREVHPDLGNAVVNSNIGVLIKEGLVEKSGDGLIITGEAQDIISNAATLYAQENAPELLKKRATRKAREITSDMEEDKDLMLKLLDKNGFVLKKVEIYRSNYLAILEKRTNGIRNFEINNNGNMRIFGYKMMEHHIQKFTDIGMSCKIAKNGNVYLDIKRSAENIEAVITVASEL

In the next data set the target is T2, MotA Q76R (bacteriophage T4, UniProt P22915 1-211, Q76R).
T2 sequence: T1 sequence with E59K, Q76R

Another data set addresses T3, MotA K3E (bacteriophage T4, UniProt P22915 1-211, K3E).
T3 sequence: T1 sequence with K3E, E59K

The next data set has as its target T4, MotA S80R (bacteriophage T4, UniProt P22915 1-211, S80R).
T4 sequence: T1 sequence with E59K, S80R

A further data set has as its target T5, MotA K28E (bacteriophage T4, UniProt P22915 1-211, K28E).
T5 sequence: T1 sequence with K28E, E59K

For another data set, the target named is T6, MotA D43K (bacteriophage T4, UniProt P22915 1-211, D43K).
T6 sequence: T1 sequence with D43K, E59K

Numbering of substitutions follows the chain as printed.

B1: 21 bp MotA box DNA (dsDNA)
DNA 1: GAATTATTTGCTTTAGATTAC
DNA 2: GTAATCTAAAGCAAATAATTC
Turning to B1, the Kd is approximately 500 nM with MotA K59E; approximately 600 nM with MotA Q76R; approximately 500 nM in the data set with MotA K3E; approximately 600 nM in the data set with MotA S80R; approximately 500 nM with MotA K28E; approximately 500 nM in the data set with MotA D43K.
